Measurements as given in the supplement of paper PMC9112550, “Optimization of the antimicrobial peptide Bac7 by deep mutational scanning” (BMC Biology, 2022).

System: Escherichia coli TOP10
Test: shrunken log2 fold change of peptide-encoding DNA abundance (4.5 h post-induction vs induction); higher = less antimicrobial activity (less host growth inhibition)
Conditions: time post-induction: 4.5 h; library: site-saturation at positions 5, 18, 19, 20
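Further: peptides expressed intracellularly from a pBAD plasmid library in pooled LB shake-flask culture, induced with 0.3% L-arabinose, DNA abundance read by NGS, three biological replicates, DESeq2 with apeglm shrinkage.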

Row | Sequence | shrunken log2 fold change
1 | RRIRGRPPRLPRPRPRPQHYPRP | -0.167
2 | RRIRGRPPRLPRPRPRPQLDPRP | 0.646
3 | RRIRGRPPRLPRPRPRPQLRPRP | 0.139
4 | RRIRGRPPRLPRPRPRPQLYPRP | 0.415
5 | RRIRGRPPRLPRPRPRPQNVPRP | 0.266
6 | RRIRGRPPRLPRPRPRPQQLPRP | 0.487
7 | RRIRGRPPRLPRPRPRPQQWPRP | 0.067
8 | RRIRGRPPRLPRPRPRPQRGPRP | 0.119
9 | RRIRGRPPRLPRPRPRPQSDPRP | 0.254
10 | RRIRGRPPRLPRPRPRPQSKPRP | 0.348
11 | RRIRGRPPRLPRPRPRPQSTPRP | 0.649
12 | RRIRGRPPRLPRPRPRPQSWPRP | 0.445
13 | RRIRGRPPRLPRPRPRPQTHPRP | 1.41
14 | RRIRGRPPRLPRPRPRPQWMPRP | 0.115
15 | RRIRGRPPRLPRPRPRPQYHPRP | -0.141
16 | RRIRGRPPRLPRPRPRPRCAPRP | 1.09
17 | RRIRGRPPRLPRPRPRPRCEPRP | 0.782
18 | RRIRGRPPRLPRPRPRPRDRPRP | 0.789
19 | RRIRGRPPRLPRPRPRPREAPRP | 1.31
20 | RRIRGRPPRLPRPRPRPRFSPRP | 0.0932
21 | RRIRGRPPRLPRPRPRPRGTPRP | 1.16
22 | RRIRGRPPRLPRPRPRPRHIPRP | 0.192

Row | Sequence | shrunken log2 fold change
23 | RRIRGRPPRLPRPRPRPRHVPRP | 0.218
24 | RRIRGRPPRLPRPRPRPRIRPRP | 0.211
25 | RRIRGRPPRLPRPRPRPRIWPRP | 0.836
26 | RRIRGRPPRLPRPRPRPRLAPRP | 1.35
27 | RRIRGRPPRLPRPRPRPRLSPRP | 0.313
28 | RRIRGRPPRLPRPRPRPRNVPRP | 0.642
29 | RRIRGRPPRLPRPRPRPRQAPRP | 0.93
30 | RRIRGRPPRLPRPRPRPRQQPRP | 0.614
31 | RRIRGRPPRLPRPRPRPRTDPRP | 1.06
32 | RRIRGRPPRLPRPRPRPRTEPRP | 0.755
33 | RRIRGRPPRLPRPRPRPRTTPRP | 1.06
34 | RRIRGRPPRLPRPRPRPRVGPRP | 1.02
35 | RRIRGRPPRLPRPRPRPRVKPRP | 0.856
36 | RRIRGRPPRLPRPRPRPRWEPRP | 0.946
37 | RRIRGRPPRLPRPRPRPRWGPRP | 0.852
38 | RRIRGRPPRLPRPRPRPRWLPRP | 0.527
39 | RRIRGRPPRLPRPRPRPRYMPRP | -0.0195
40 | RRIRGRPPRLPRPRPRPRYTPRP | 0.178
41 | RRIRGRPPRLPRPRPRPRYVPRP | -0.0805
42 | RRIRGRPPRLPRPRPRPRYWPRP | 0.248
43 | RRIRGRPPRLPRPRPRPSAYPRP | 1.07
44 | RRIRGRPPRLPRPRPRPSCHPRP | 0.175

Row | Sequence | shrunken log2 fold change
45 | RRIRGRPPRLPRPRPRPSCWPRP | 0.413
46 | RRIRGRPPRLPRPRPRPSDHPRP | 0.0544
47 | RRIRGRPPRLPRPRPRPSGCPRP | 0.477
48 | RRIRGRPPRLPRPRPRPSGGPRP | 0.391
49 | RRIRGRPPRLPRPRPRPSGWPRP | 1.52
50 | RRIRGRPPRLPRPRPRPSHPPRP | 0.372
51 | RRIRGRPPRLPRPRPRPSIKPRP | 0.47
52 | RRIRGRPPRLPRPRPRPSKPPRP | 0.218
53 | RRIRGRPPRLPRPRPRPSLAPRP | 1.09
54 | RRIRGRPPRLPRPRPRPSLDPRP | 0.607
55 | RRIRGRPPRLPRPRPRPSLGPRP | 0.488
56 | RRIRGRPPRLPRPRPRPSNGPRP | 2.8
57 | RRIRGRPPRLPRPRPRPSNWPRP | 1.12
58 | RRIRGRPPRLPRPRPRPSPWPRP | 0.392
59 | RRIRGRPPRLPRPRPRPSQWPRP | 0.101
60 | RRIRGRPPRLPRPRPRPSRMPRP | 0.22
61 | RRIRGRPPRLPRPRPRPSRRPRP | 0.647
62 | RRIRGRPPRLPRPRPRPSSHPRP | -0.0172
63 | RRIRGRPPRLPRPRPRPSVQPRP | -0.0165
64 | RRIRGRPPRLPRPRPRPSVYPRP | 0.286
65 | RRIRGRPPRLPRPRPRPSWCPRP | 0.013
66 | RRIRGRPPRLPRPRPRPSWVPRP | 0.0128

Row | Sequence | shrunken log2 fold change
67 | RRIRGRPPRLPRPRPRPSYNPRP | 0.0742
68 | RRIRGRPPRLPRPRPRPSYPPRP | -0.215
69 | RRIRGRPPRLPRPRPRPTAMPRP | 2.78
70 | RRIRGRPPRLPRPRPRPTASPRP | 1.49
71 | RRIRGRPPRLPRPRPRPTATPRP | 3.4
72 | RRIRGRPPRLPRPRPRPTCVPRP | 1.04
73 | RRIRGRPPRLPRPRPRPTDEPRP | 0.573
74 | RRIRGRPPRLPRPRPRPTDNPRP | 0.283
75 | RRIRGRPPRLPRPRPRPTEFPRP | 0.327
76 | RRIRGRPPRLPRPRPRPTELPRP | 0.261
77 | RRIRGRPPRLPRPRPRPTENPRP | 0.682
78 | RRIRGRPPRLPRPRPRPTFLPRP | 0.356
79 | RRIRGRPPRLPRPRPRPTFMPRP | 0.327
80 | RRIRGRPPRLPRPRPRPTGKPRP | 0.899
81 | RRIRGRPPRLPRPRPRPTGRPRP | 0.907
82 | RRIRGRPPRLPRPRPRPTHLPRP | 0.359
83 | RRIRGRPPRLPRPRPRPTICPRP | 0.601
84 | RRIRGRPPRLPRPRPRPTISPRP | 0.534
85 | RRIRGRPPRLPRPRPRPTKGPRP | 0.2
86 | RRIRGRPPRLPRPRPRPTKHPRP | 0.385
87 | RRIRGRPPRLPRPRPRPTLHPRP | 0.896
88 | RRIRGRPPRLPRPRPRPTLRPRP | 0.793

Row | Sequence | shrunken log2 fold change
89 | RRIRGRPPRLPRPRPRPTMNPRP | 0.709
90 | RRIRGRPPRLPRPRPRPTNIPRP | 0.298
91 | RRIRGRPPRLPRPRPRPTNYPRP | 1.07
92 | RRIRGRPPRLPRPRPRPTPHPRP | 0.906
93 | RRIRGRPPRLPRPRPRPTPMPRP | 0.887
94 | RRIRGRPPRLPRPRPRPTRQPRP | 0.577
95 | RRIRGRPPRLPRPRPRPTTYPRP | 0.214
96 | RRIRGRPPRLPRPRPRPTWNPRP | 0.359
97 | RRIRGRPPRLPRPRPRPTYAPRP | 0.436
98 | RRIRGRPPRLPRPRPRPTYEPRP | 0.318
99 | RRIRGRPPRLPRPRPRPTYQPRP | 0.169
100 | RRIRGRPPRLPRPRPRPVEVPRP | 1.03
101 | RRIRGRPPRLPRPRPRPVGHPRP | 0.453
102 | RRIRGRPPRLPRPRPRPVLHPRP | -0.0969
103 | RRIRGRPPRLPRPRPRPVNEPRP | 0.517
104 | RRIRGRPPRLPRPRPRPVNWPRP | 0.302
105 | RRIRGRPPRLPRPRPRPVQVPRP | 0.215
106 | RRIRGRPPRLPRPRPRPVRRPRP | 0.977
107 | RRIRGRPPRLPRPRPRPVSSPRP | 0.0973
108 | RRIRGRPPRLPRPRPRPVSWPRP | 1.06
109 | RRIRGRPPRLPRPRPRPVTCPRP | 0.146
